Test results as given in PMC6294489, “Structural basis for receptor-regulated SMAD recognition by MAN1” (Nucleic Acids Research, 2018).

B1: Trx-MAN1(762–890)-SDED (domain or fragment, human, UniProt Q9Y2U8 762-890, looked up)
chain: SKVWQGQAFHLDRRNSPPNSLTPCLKIRNMFDPVMEIGDQWHLAIQEAILEKCSDNDGIVHIAVDKNSREGCVYVKCLSPEYAGKAFKALHGSWFDGKLVTVKYLRLDRYHHRFPQALTSNTPLKPSNK
notes: MAN1, human, residues 762–890 (ULM and UHM domain); Layout: His-tag, HRV3C site, Trx, Gly-Ser, MAN1, Ser-Asp-Glu-Asp; His tag cut off with HRV3C; source: E. coli Rosetta (DE3), purified (Ni-NTA, HRV3C protease, MonoQ); not shown: His tag, N-terminal, cleaved; Trx, N-terminal, kept; SDED (Ser-Asp-Glu-Asp), C-terminal, kept
B2: Trx-MAN1(762–911)-SDED (domain or fragment, human, UniProt Q9Y2U8 762-911, looked up)
chain: SKVWQGQAFHLDRRNSPPNSLTPCLKIRNMFDPVMEIGDQWHLAIQEAILEKCSDNDGIVHIAVDKNSREGCVYVKCLSPEYAGKAFKALHGSWFDGKLVTVKYLRLDRYHHRFPQALTSNTPLKPSNKHMNSMSHLRLRTGLTNSQGSS
notes: MAN1, human, residues 762–911 (ULM, UHM domain and C-terminal disordered region); source: E. coli Rosetta (DE3), purified (Ni-NTA, HRV3C protease, MonoQ); not shown: His tag, N-terminal, cleaved; Trx, N-terminal, kept; SDED (Ser-Asp-Glu-Asp), C-terminal, kept

How the values were obtained:
[1] = target: T1, His-GST-SMAD1C-2E H364Y-F366W (human, UniProt Q15797-1 259-465, H364Y | F366W | S463E | S465E); test: pull-down; His-GST-SMAD1C-2E, its mutant or His-GST-SMAD2C-2E (2.5 μM) on Ni-NTA resin, Trx-MAN1(762–890)-SDED (5 μM; 5, 10 and 20 μM in the comparison of SMAD1 with SMAD2); 50 mM Tris–HCl pH 9.0, 200 mM NaCl, 10 mM imidazole, 10% glycerol, 1 mM TCEP; settings: both partners purified
T1 construct: SMAD1, human, MH2 domain, residues 259–465 with S463E, S465E, H364Y and F366W; also called H364Y-F366W double mutant of SMAD1; source: E. coli BL21(DE3) with pG-KJE8, purified (Ni-NTA, MonoQ); not shown: His tag, N-terminal, kept; GST, N-terminal, kept
T1 sequence (Q15797 259-465 H364Y/F366W/S463E/S465E): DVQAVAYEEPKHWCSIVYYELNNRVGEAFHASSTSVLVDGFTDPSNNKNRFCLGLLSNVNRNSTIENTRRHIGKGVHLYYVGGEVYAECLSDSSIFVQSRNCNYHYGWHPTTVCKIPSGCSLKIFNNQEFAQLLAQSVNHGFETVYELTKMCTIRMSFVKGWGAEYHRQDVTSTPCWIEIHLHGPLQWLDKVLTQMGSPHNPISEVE

[2] = target: SMAD2C-2E (human); test: ITC; Trx-MAN1(762–890)-SDED (255 μM) injected into SMAD1C-2E (20 μM) or SMAD2C-2E (25 μM); 20°C; 100 mM Na2HPO4 pH 8.0, 150 mM NaCl, 1 mM TCEP; one set of sites model
[3] = target: T2, SMAD1C-2E (human, UniProt Q15797-1 259-465, S463E | S465E); test: as above; settings: both partners purified
T2 construct: SMAD1, human, MH2 domain, residues 259–465 with S463E and S465E; Crystals: from pGEX-6P-SMAD1C-2E (GST cleaved); treated as the same molecule; also called phosphorylated-state mimic of the MH2 domain of SMAD1; source: E. coli BL21(DE3) with pG-KJE8; for ITC and thermal shift purified (Ni-NTA, HRV3C protease, MonoQ); not shown: GST, N-terminal, cleaved
T2 sequence (Q15797 259-465 S463E/S465E): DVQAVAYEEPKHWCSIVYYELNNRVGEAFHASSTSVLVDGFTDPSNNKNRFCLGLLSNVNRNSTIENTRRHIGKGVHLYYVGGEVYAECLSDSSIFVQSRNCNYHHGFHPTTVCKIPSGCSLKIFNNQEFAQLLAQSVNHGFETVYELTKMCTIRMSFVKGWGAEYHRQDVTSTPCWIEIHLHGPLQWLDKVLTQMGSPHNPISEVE

[4] = target: T2, SMAD1C-2E; test: thermal shift assay; SMAD1C-2E or SMAD2C-2E (10 μM) with Trx-MAN1(762–911)-SDED (10 μM), SYPRO Orange; 10 mM Tris–HCl pH 9.0, 200 mM NaCl, 1 mM TCEP; 20 to 95°C; settings: both partners purified

| Binder | binding result [1] | Kd [2] [nM] | Kd [3] [nM] | Tm of SMAD1C-2E with the binder (48.5°C without) [4] [°C] |
| --- | --- | --- | --- | --- |
| B1 | binds | 3300 | 350 | – |
| B2 | – | – | – | 50.5 |
